Patent publication US8030043B2, “β-galactoside-α2,3-sialyltransferase, a gene encoding thereof, and a method for producing thereof” (Japan Tobacco Inc., priority 2005, dated 2011)
Numbering of substitutions follows the chain as printed.

B1: ISH467-N0C0 first clone: E. coli-expressed full-length JT-ISH-467 sialyltransferase with Asn to Ser change at position 190 of SEQ ID NO: 2 (protein, listed as Photobacterium phosphoreum)
chain: MFVFCKKIFFLIFISLMILGGCNSDSKHNNSDGNITKNKTIEVYVDRATLPTIQQMTQIINENSNNKKLISWSRYPINDETLLESINGSFFKNRPELIKSLDSMILTNEIKKVIINGNTLWAVDVVNIIKSIEALGKKTEIELNFYDDGSAEYVRLYDFSRLPESEQEYKISLSKDNIQSSINGTQPFDSSIENIYGFSQLYPTTYHMLRADIFETNLPLTSLKRVISNNIKQMKWDYFTTFNSQQKNKFYNFTGFNPEKIKEQYKASPHENFIFIGTNSGTATAEQQIDILTEAKKPDSPIITNSIQGLDLFFKGHPSATYNQQIIDAHNMIEIYNKIPFEALIMTDALPDAVGGMGSSVFFSLPNTVENKFIFYKSDTDIENNALIQVMIELNIVNRNDVKLISDLQ
B2: ISH467-N0C0 second clone: E. coli-expressed full-length JT-ISH-467 sialyltransferase, nucleotide sequence of SEQ ID NO: 1, no change (protein, listed as Photobacterium phosphoreum)
chain: B1 chain with S190N
modifications: CDS (1)..(1230) /gene=“467-23ST” /product=“Beta-galactoside- alpha 2,3-sialyltransferase”
B3: ISH467-N2C0 first clone: JT-ISH-467 sialyltransferase lacking signal peptide region, Phe replaced by Ser at position 159 (protein, listed as Photobacterium phosphoreum)
chain: B1 chain with F159S, S190N
modifications: lacks signal peptide; cited entry is nucleotide; CDS (1)..(1230) /gene=“467-23ST” /product=“Beta-galactoside- alpha 2,3-sialyltransferase”
B4: FAJ-N0C0 first clone: E. coli-expressed full-length JT-FAJ-16 sialyltransferase, nucleotides 1 to 1209 of SEQ ID NO: 30 (protein, listed as Vibrio sp.)
chain: MKNIITKRMLIILSSLFTIIGCNNDNSTTTNNNAIEIYVDRATLPTIQQMTKIVSQKTSNKKLISWSRYPITDKSLLKKINAEFFKEQFELTESLKNIILSENIDNLIIHGNTLWSIDVVDIIKEVNLLGKNIPIELHFYDDGSAEYVRIYEFSKLPESEQKYKTSLSKNNIKFSIDGTDSFKNTIENIYGFSQLYPTTYHMLRADIFDTTLKINPLRELLSNNIKQMKWDYFKDFNYKQKDIFYSLTNFNPKEIQEDFNKNSNKNFIFIGSNSATATAEEQINIISEAKKENSSIITNSISDYDLFFKGHPSATFNEQIINAHDMIEINNKIPFEALIMTGILPDAVGGMGSSVFFSIPKEVKNKFVFYKSGTDIENNSLIQVMLKLNLINRDNIKLISDI
modifications: CDS (1)..(1209) /gene=“FAJ16-23ST” /product=“Beta-galactoside- alpha 2,3-sialyltransferase”

Assays:
Type in all cases: biochemical
[1] = system: β-galactoside-α2,3-sialyltransferase from Photobacterium phosphoreum JT-ISH-467; assay: Determination of binding mode of sialic acid using pyridylaminated sugar chain, HPLC; details: acceptor 2.0 μM, CMP-NeuAc 5.7 μM, enzyme 20 mU/ml, pH 6.0, 25° C., 3 hours
Description: (§1) Using the enzyme obtained in Example 2, the enzymatic reaction was carried out using a pyridylaminated sugar chain as a glycosyl acceptor substrate. The pyridylaminated sugar chain used for analysis was pyridylaminated lactose (Galβ1-4Glc-PA, Takara Bio Inc., Japan). The glycosyl acceptor substrate, CMP-NeuAc and the enzyme were dissolved at 2.0 μM, 5.7 μM and 20 mU/ml, respectively, in 25 μl of 20 mM cacodylate buffer (pH 6.0), and then reacted at 25° C. for 3 hours. After the reaction, the reaction solution was treated at 100° C. for 2 minutes to inactivate the enzyme, followed by HPLC to analyze the reaction product.
The HPLC system used was Shimadzu LC10A (Shimadzu Corporation, Japan) and the analytical column used was Takara PALPAK Type R (Takara Bio Inc., Japan). The column which had been equilibrated with 100 mM acetate-triethylamine (pH 5.0) containing 0.15% N-butanol was injected with the reaction solution diluted with Eluent A (100 mM acetate-triethylamine, pH 5.0). […] The analysis was performed under the following conditions: flow rate: 1 ml/min, column temperature: 40° C., detection: fluorescence (Ex: 320 nm, Em: 400 nm).

[2] = Confirmation of α2,3 sialyltransferase activity of E. coli-expressed enzyme with pyridylaminated lactose, HPLC; details: pyridylaminated lactose 2.0 μM, CMP-sialic acid 5.7 μM, pH 6.0, 25° C., 6 hours
Description: as §1
The HPLC system used was Shimadzu LC10A (Shimadzu Corporation, Japan) and the analytical column used was Takara PALPAK Type R (Takara Bio Inc., Japan). The column which had been equilibrated with 100 mM acetate-triethylamine (pH 5.0) containing 0.15% N-butanol was injected with the reaction solution diluted with Eluent A (100 mM acetate-triethylamine, pH 5.0). For elution of the pyridylaminated sugar chain, Eluent A (100 mM acetate-triethylamine, pH 5.0) and Eluent B (100 mM acetate-triethylamine containing 0.5% n-butanol, pH 5.0) were used to successively elute the pyridylaminated sugar chain with a linear gradient of 30% to 100% Eluent B (0 to 35 minutes) and then 100% Eluent B (35 to 50 minutes). The analysis was performed under the following conditions: flow rate: 1 ml/min, column temperature: 40° C., detection: fluorescence (Ex: 320 nm, Em: 400 nm).
As in the case of Example 3, pyridylaminated lactose (Galβ1-4Glc-PA, PA-Sugar Chain 026, Takara Bio Inc., Japan) was used as a glycosyl acceptor to carry out the enzymatic reaction. After the reaction, the reaction solution was heated at 95° C. for 5 minutes to inactivate the enzyme, followed by HPLC analysis. It should be noted that the enzymatic reaction was accomplished at 25° C. for 6 hours using pyridylaminated lactose and CMP-sialic acid dissolved at 2.0 μM and 5.7 μM, respectively, in 25 μl of 20 mM cacodylate buffer (pH 6.0) (Reaction 1). On the other hand, a control experiment (Reaction 2) was carried out using a reaction solution free from CMP-sialic acid. Further, to clarify the retention time of standards, the crude enzyme solution was inactivated by thermal treatment (95° C., 5 minutes) and tested in the presence of pyridylaminated lactose and pyridylaminated α2,3-sialyllactose (pyridylaminated 3′-sialyllactose) (Neu5Acα2-3Galβ1-4Glc-PA, PA-Sugar Chain 029, Takara Bio Inc., Japan).

[3] = Sialyltransferase activity in E. coli homogenate (crude enzyme solution), transfer of 14C-NeuAc from CMP-NeuAc to lactose; details: lactose acceptor; for Radioactivity (cpm) Average: average of duplicate; for Sialyltransferase activity in crude enzyme solution (in words): CMP-14C-NeuAc donor
Description: Sialyltransferase activity was measured as described in J. Biochem., 120, pp. 104-110 (1996) (which is hereby incorporated by reference in its entirety). More specifically, the enzymatic reaction was accomplished by using CMP-NeuAc (70 nmol, containing 25000 cpm CMP-NeuAc in which NeuAc was labeled with ^14C, 356 cpm/nmol; NeuAc represents N-acetylneuraminic acid) as a glycosyl donor substrate, lactose (1.25 μmol) as a glycosyl acceptor substrate, NaCl added to give a concentration of 0.5 M, and the enzyme-containing reaction solution (30 μl) prepared as described above. The enzymatic reaction was carried out at 25° C. for 10 to 30 minutes. After completion of the reaction, 1.97 ml of 5 mM phosphate buffer (pH 6.8) was added to the reaction solution, which was then applied to a Dowex 1×8 (PO4^3− form, 0.2×2 cm, BIO-RAD) column. The radioactivity was measured for the reaction product, i.e., sialyllactose contained in the eluate (0 to 2 ml) from this column to calculate the enzyme activity.
An induction experiment of protein expression was performed on the two 467-N0C0 clones and the three 467-N2C0 clones obtained in (4) above. A single colony of E. coli TB1 having the expression vector pTrc99A carrying each clone was inoculated into LB medium (5 ml) containing an antibiotic, ampicillin (final concentration 100 μg/mL), and pre-cultured at 30° C. to about A600=0.5, followed by addition of IPTG (isopropyl-β-D(−)-thiogalactopyranoside, Wako Pure Chemical Industries, Ltd. Japan) at a final concentration of 1 mM. After culturing with shaking at 30° C. for an additional 4 hours, the cells in 2 ml culture solution were collected by centrifugation. These cells were suspended in 200 μl of 20 mM BisTris buffer (pH 7.0) containing 0.336% Triton X-100 and 0.5 M sodium chloride, and ultrasonically homogenized under ice cooling. The resulting homogenate was defined as a crude enzyme solution and provided for activity measurement. The reaction was carried out in duplicate, and the reaction composition was the same as shown in Example 1, except that the reaction time was set to 15 hours.
In the same manner as shown in Example 5(5), an induction experiment of protein expression was performed on 2 clones, i.e., the first clone of ISH224-N0C0 and the first clone of ISH224-N1C0 to measure their enzyme activity.
In the same manner as shown in Example 5(5), an induction experiment of protein expression was performed on 3 clones, i.e., the first clone of FAJ-N0C0 as well as the first and second clones of FAJ-N1C0 to measure their enzyme activity.

[4] = JT-ISH-467 gene clones, 25° C., reaction time 15 hours
[5] = JT-FAJ-16 gene clones, as Example 5(5)

Row | Molecule | Reaction product from pyridylaminated sugar chain (binding mode of sialic acid) [1] | α2,3 sialyltransferase activity (formation of pyridylaminated α2,3-sialyllactose) [2] | Radioactivity (cpm) Round 1 [3, 4] | Radioactivity (cpm) Round 2 [3, 4] | Radioactivity (cpm) Average [3, 4] | Sialyltransferase activity in crude enzyme solution (in words) [3] | Radioactivity (cpm) Round 1 [3, 5] | Radioactivity (cpm) Round 2 [3, 5] | Radioactivity (cpm) Average [3, 5]
1 | OC[C@@H](O)[C@@H](O[C@@H]1O[C@H](CO)[C@H](O)[C@H](O)[C@H]1O)[C@H](O)[C@@H](O)CNc1ccccn1 [PA-Sugar Chain 026, pyridylaminated lactose] | pyridylaminated α2,3-sialyllactose (pyridylaminated 3′-sialyllactose) was synthesized |  |  |  |  |  |  |  | 
2 | B1 |  | found to have α2,3 sialyltransferase activity | 8496 cpm | 7486 cpm | 7991 cpm | sialyltransferase activity in both crude enzyme solutions |  |  | 
3 | B2 |  | found to have α2,3 sialyltransferase activity | 7097 cpm | 7809 cpm | 7453 cpm | sialyltransferase activity in both crude enzyme solutions |  |  | 
4 | B3 |  | had α2,3 sialyltransferase activity | 10514 cpm | 9033 cpm | 9773.5 cpm | sialyltransferase activity was also observed |  |  | 
5 | B4 |  | a peak of pyridylaminated α2,3-sialyllactose (pyridylaminated 3′-sialyllactose) was detected |  |  |  | sialyltransferase activity was observed | 11012 cpm | 12056 cpm | 11534 cpm
